Data taken from US20220380473A1, “ANTI-GAL3 ANTIBODIES AND USES THEREOF” (TrueBinding, Inc., priority 2019, published 2022).

Assays:
[1] = test system: α-smooth muscle actin (SMA) and fibronectin; assay: UUO mouse kidney fibrosis, western blot of fibrosis markers (Example 19); assay type: in vivo; details: 10 mg/kg i.p., 14 day treatment, vs IgG2b control
Description: Unilateral […] obstruction (UUO) mouse model was created with 8-week old male C57BL/6 mice. The animals were randomly assigned into three groups (n=5); sham, mouse IgG2b control, and IMT001. […] On day 0, surgery was performed to ligate the left ureter in each animal. Following the surgery, the animals were administrated intraperitoneally either 10 mg/kg of mIgG2b (BioXCell) or IMT001 on day 1, 5 and 10. The animals in the sham group were left untreated. On day 4, 8 and 15 the animals were humanely sacrificed and left kidney tissues were surgically removed and snap frozen for western blot analysis.
30 mg snap frozen kidney tissue from 14 day treatment UUO group was homogenized in 500 μl of RIPA buffer (Thermo Scientific). The homogenate was left on ice for 10 minutes and then centrifuged at 12000 rpm for 10 min at 4° C. in 1.5 mL Eppendorf tubes. The supernatant containing protein was collected and was quantified by A280 absorbance with a Nanodrop (ThermoFisher). Protein samples were boiled in 4× sample Buffer containing β-mercaptoethanol (Bio-Rad) for 10 min. […] The membranes were washed three times with PBST and protein bands were detected by enhanced chemiluminescence using standard ECL detection methods as recommended by the manufacturer (Bio-Rad) and developed. […]

[2] = test system: MCD mouse model of liver fibrosis; assay: Methionine-choline deficient (MCD) mouse model of liver fibrosis; assay type: in vivo
Text: To further investigate the ability of GAL3-TIM3 blocking antibodies to influence liver fibrosis, the methionine-choline deficient (MCD) mouse model of liver fibrosis was employed. Briefly, Six-week-old male C57Bl/6 mice (Jackson Laboratory) were fed either a normal diet (Envigo, #2020X; n=5 mice); or MCD diet (Fisher Scientific, #MP296043910, n=25) for 8 weeks and continuously through the remainder of the study. Mice were divided into three groups (7 mice each) and randomized based on ALT score. Group 1 and 2 were treated mouse anti-mIgG2aLala isotype control (mISO, 10 mg/kg) or mouse anti-Gal3 antibody (mIMT001, 10 mg/kg) twice a week of IP injection for 4 weeks, at which time animals were sacrificed and liver specimens were collected, fixed in 4% paraformaldehyde (Electron Microscopy Sciences, Cat #15710S) for 24 hours, transferred to 70% EtOH for 72 hours, and samples were subsequently embedded in paraffin. […] Brightfield images were acquired under a Revolve microscope (Discover Echo, Inc.).
To assess fibrosis in these specimens, tissue sections were evaluated for the deposition of fibrotic collagen deposits by picosirius red staining. Briefly, after deparaffinization, liver specimens from isotype control- or IMT001-treated MCD mice were rehydrated in serial ethanol baths, sections were stained in 0.01% Fast green FCF Solution (Cat #1.04022.0025 MilliporeSigma) in saturated picric aqueous solution for 15 minutes at room temperature, followed by 1 h incubation at room temperature in 0.04% Fast green FCF/0.1% Sirius red in saturated picric aqueous solution, prior to their dehydration, clearing and mounting. Images were quantitated using ImageJ software (Rasband, W. S., ImageJ, U. S. National Institutes of Health, Bethesda, Md., USA, world wide web.imagej.nih.gov/ij/)

[3] = target: T1, interaction between Gal3 and TIM-3 (Mus musculus, UniProt P16110); assay: Blocking ELISA, mouse Gal3 coated plate and mouse TIM-3 Fc; assay type: binding; details: mGal3 coated plate, mouse TIM-3 Fc
T1 construct: purchased BioLegend (mouse Gal3); R&D systems (mouse TIM-3 Fc)
Description: ELISA assays were also performed to test the interaction between Gal3 and TIM-3. 96 well ELISA plates (ThermoFisher Scientific) were coated with mouse Gal3 protein (BioLegend, San Diego, Calif.) in PBS or human Gal9 protein (R&D systems) in PBS or phosphatidylserine (PS) (Sigma) in ethanol and incubated at 4° C. for overnight. The plate was washed three times with TBST and then blocked with PBS buffer containing 2% BSA at room temperature for 1 hour. In FIG. 5A, different anti Gal3 antibodies, i.e. mGal3 polyclonal antibody (R&D systems), mAb IMT001 (also described in WO 2019/023247, hereby expressly incorporated by reference in its entirety), mAb M3/38 (Thermofisher Scientific) (FIG. 5A), were added to well that has been coated with Gal3. The antibodies were incubated for 10 minutes and mouse TIM-3 Fc were then added to the plates and incubated for an additional one-hour incubation. Plates were then washed for three times and followed by incubation with anti-human-IgG-HRP (Jackson ImmunoResearch) for 1 h at room temperature. The color was developed with TMB subtract (GeneTex, Irvine, Calif.) after three time washes with TBST and the reaction was terminated with 1N HCl. The optical density (OD) was read at 450 nm. The results were expressed as the average OD of duplicates±SD. […]

[4] = 10 mg/kg twice a week IP for 4 weeks

T1 sequence (P16110 2-264 limits assumed): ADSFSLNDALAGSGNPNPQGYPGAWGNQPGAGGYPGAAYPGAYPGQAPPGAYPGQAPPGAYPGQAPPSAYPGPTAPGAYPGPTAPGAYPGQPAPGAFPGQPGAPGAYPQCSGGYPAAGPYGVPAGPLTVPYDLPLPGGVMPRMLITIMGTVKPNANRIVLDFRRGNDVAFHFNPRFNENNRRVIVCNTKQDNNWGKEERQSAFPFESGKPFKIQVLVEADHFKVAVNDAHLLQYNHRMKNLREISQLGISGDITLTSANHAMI

B1: IMT001: anti-Gal3 monoclonal antibody (Immutics); printed as mIMT001 (IMT001), murine (antibody, V domains shown)
VH: QIQLVQSGPELKKPGETVKISCKASGYTFTNYGMNWVKQAPGKGLKWMGWINTNTGEPTYVEEFKGRFAFSLETSASTAYLQINNLKNEDTATYFCAPYDNFFAYWGQGTLVTVSA
VL: DIVITQDELSNPVTSGESVSISCRSSKSLLYKDGKTYLNWFLQRPGQSPQLLIYLMSTHASGVSDRFSGSGSGTDFTLEISRVKAEDVGVYYCQQLVDYPLTFGAGTKLELK
expression of fibrotic markers a-SMA and fibronectin in kidney [1]: reduced expression of both fibrotic markers | apoptotic ballooning cells, image-based quantification [2, 4]: 0.98 | infiltrating lobular immune cells, image-based quantification [2, 4]: 0.73 | steatosis, image-based quantification [2, 4]: 1 | NAS score ([2]; integrated score): 2.72 | picosirius red staining, % of the tissue area ([2]; liver sections): 1.25% | reduction of ballooning ([2]; vs control-treated): 27% | reduction of lobular immune cells ([2]; vs control-treated): 59% | reduction of steatosis ([2]; vs control-treated): 15% | reduction of NAS score ([2]; vs isotype control): 43% | reduction of picosirius red staining ([2]; vs isotype control): 71% | block of Gal3 binding to TIM-3 [3]: blocked
